Reference: patent US20160046707A1 (EISAI R AND D MANAGEMENT, published 2016)

T1: rhesus CCL20-secreted alkaline phosphatase (SEAP) fusion (rhesus monkey)
T1 construct: also called rCCL20; rhesus CCL20-SEAP; not shown: the SEAP reporter (cDNA from Clontech pSEAP-Enhancer) and its junction to CCL20
T1 chain: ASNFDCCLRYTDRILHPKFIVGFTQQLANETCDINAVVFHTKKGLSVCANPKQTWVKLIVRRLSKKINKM

T2: cynomolgus CCL20-secreted alkaline phosphatase (SEAP) fusion (cynomolgus monkey)
T2 construct: also called cCCL20; cynomolgus CCL20-SEAP; not shown: the SEAP reporter (cDNA from Clontech pSEAP-Enhancer) and its junction to CCL20
T2 chain: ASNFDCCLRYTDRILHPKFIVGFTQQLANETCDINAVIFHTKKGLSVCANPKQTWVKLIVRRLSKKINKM

T3: recombinant human CCL4 (human, UniProt P13236 24-92)
T3 construct: also called MIP-1β
T3 sequence (looked up): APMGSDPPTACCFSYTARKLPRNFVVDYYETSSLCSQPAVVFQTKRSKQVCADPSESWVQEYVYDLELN

T4: recombinant human CCL19 (human, UniProt Q99731 22-98)
T4 construct: also called MIP-3b
T4 sequence (looked up): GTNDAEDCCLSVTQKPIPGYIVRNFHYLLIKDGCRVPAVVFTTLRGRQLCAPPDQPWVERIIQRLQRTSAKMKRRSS

T5: recombinant human CXCL1 (human, UniProt P09341 35-107)
T5 construct: also called GROα
T5 sequence (looked up): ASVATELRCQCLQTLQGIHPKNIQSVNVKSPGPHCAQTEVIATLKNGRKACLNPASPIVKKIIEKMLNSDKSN

T6: recombinant human CCL3 (human, UniProt P10147 27-92, limits assumed)
T6 construct: also called MIP-1a
T6 sequence (looked up): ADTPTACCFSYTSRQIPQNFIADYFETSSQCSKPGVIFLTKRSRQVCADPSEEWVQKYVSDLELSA

T7: recombinant human XCL1 (human, UniProt P47992 23-114, limits assumed)
T7 construct: also called Ltn
T7 sequence (looked up): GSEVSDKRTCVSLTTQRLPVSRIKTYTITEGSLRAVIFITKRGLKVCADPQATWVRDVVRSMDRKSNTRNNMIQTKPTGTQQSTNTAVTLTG


How the values were obtained:
[1] = target: T1, rhesus CCL20-secreted alkaline …; assay: SPR (Biacore), bivalent format, KD ratio against human CCL20 (Table 17)
Description: (§1) We also used surface plasmon resonance (Biacore™) analysis to test whether HC2/LC3 and HC2/LK3 can bind to mouse, cynomolgus, or rhesus macaque CCL20 orthologs. Monoclonal mouse anti-human placental alkaline phosphatase was immobilized on all four flow cells of a CM5 chip at a flow rate of 25 μl/min. 25 μl of a 2 nM solution of human, rhesus, cynomolgus, or mouse CCL20-SEAP in HBS-EP buffer was injected over flow cell 2, 3, or 4. For antibody binding, 240 μl of 0-80 nM dilutions of HC2/LC3, HC2/LK3, or 2F5-5 MAb in HBS-EP buffer (or buffer alone) was injected over all four flow cells at a flow rate of 50 μl/min. Dissociation followed for 45 min. Flow cell 1 (anti-SEAP alone) was used as a reference for all flow cells. Regeneration of the flow cells was performed with 10 mM glycine at pH 2.25. Due to regeneration effects on the capturing capacity of the chips, antibody injections were performed sequentially from low to high concentration. Data fitting was performed using a 1:1 Langmuir model.
(§2) In contrast, chimeric, HC2/LC3, and HC2/LK3 antibodies effectively bound to human, rhesus, and cynomolgus CCL20 (Table 17).

[2] = target: T2, cynomolgus CCL20-secreted alkaline …; assay: as above
Description: as §1, §2

recombinant human CXCL12 = target: T8, recombinant human CXCL12 (human, UniProt P48061-2 22-89); assay: ELISA, plate-bound chemokine (1 ug/ml), antibody 10 ug/ml, OD450
T8 construct: also called SDF-1/PBSF
Description: (§3) The wells of a 96-well plate were coated with 1 μg/ml of the recombinant human chemokines in PBS (−). After overnight incubation at 4° C., the wells were blocked with 1× Block-Ace (Dainippon Sumitomo Pharma, UK-B80) for 1 hour at room temperature. After washing twice with 0.02% Tween 20/PBS (−), we added 50 μl of 10 μg/ml purified 36F7C10, chimeric 36F710, HC2/LK3, or HC2/LC3 in 0.02% Tween 20/PBS (−) to each well. The wells were incubated for 1 hour at room temperature and washed three times as described in Example 3. […] After washing five times, a TMBZ (3,3′,5,5′-tetramethylbenzidine) solution (1%, in N,N-Dimethylformamide) was added to the wells and incubated for 15-30 minutes. The reaction was stopped by adding an equal volume of a 2 M H₂SO₄ stopping solution, and the optical density was read at 450 nm by ARVO (PerkinElmer).

recombinant human CCL4 = target: T3, recombinant human CCL4; assay: as above
Description: as §3

recombinant human CCL11 = target: T9, recombinant human CCL11 (human, UniProt P51671 24-97); assay: as above
T9 construct: also called Eotaxin
Description: as §3

recombinant human CCL19 = target: T4, recombinant human CCL19; assay: as above
Description: as §3

recombinant human CXCL1 = target: T5, recombinant human CXCL1; assay: as above
Description: as §3

recombinant human CCL3 = target: T6, recombinant human CCL3; assay: as above
Description: as §3

recombinant human CCL13 = target: T10, recombinant human CCL13 (human, UniProt Q99616 24-98); assay: as above
T10 construct: also called MCP-4
Description: as §3

recombinant human XCL1 = target: T7, recombinant human XCL1; assay: as above
Description: as §3

T8 sequence (P48061 22-89 limits assumed): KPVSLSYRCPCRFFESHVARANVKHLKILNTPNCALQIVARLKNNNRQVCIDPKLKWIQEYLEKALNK
T10 sequence (Q99616 24-98 limits assumed): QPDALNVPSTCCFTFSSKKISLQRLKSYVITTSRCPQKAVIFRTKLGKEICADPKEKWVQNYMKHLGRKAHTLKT
T9 sequence (P51671 24-97 limits assumed): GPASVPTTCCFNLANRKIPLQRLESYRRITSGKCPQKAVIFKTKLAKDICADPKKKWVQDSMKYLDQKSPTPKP

Binder | fold higher KD than for human CCL20 [1] | fold higher KD than for human CCL20 [2] | binding result (recombinant human CXCL12) | binding result (recombinant human CCL4) | binding result (recombinant human CCL11) | binding result (recombinant human CCL19) | binding result (recombinant human CXCL1) | binding result (recombinant human CCL3) | binding result (recombinant human CCL13) | binding result (recombinant human XCL1)
humanized anti-human CCL20 antibody 36LK3/36HC2 (antibody, human IgG1, kappa, V domains shown, expressed in HEK293 cells; also called HC2/LK3; HC2LK3) VH: QVQLVQSGAEVKKPGASVKVSCKASGYTFTNYWMHWVRQAPGQGLEWMGVIDPSDSYTTYAQKFQGRVTMTVDTSTSTVYMELSSLRSEDTAVYYCARGNYGVDYAMDYWGQGTLVTVSS VL: DIQMTQSPSSLSASVGDRVTITCGASENIYGALNWYQRKPGKAPKLLIYGATNLADGVPSRFSGSGSGRDYTLTISSLQPEDFATYYCQNVLITPYTFGQGTKLEIKR | ~3 fold | ~3 fold | no binding (tested: 10 ug/ml) | no binding (tested: 10 ug/ml) | no binding (tested: 10 ug/ml) | no binding (tested: 10 ug/ml) | no binding (tested: 10 ug/ml) | no binding (tested: 10 ug/ml) | no binding (tested: 10 ug/ml) | no binding (tested: 10 ug/ml)
humanized anti-human CCL20 antibody 36LC3/36HC2 (antibody, human IgG1, kappa, V domains shown, expressed in HEK293 cells; also called HC2/LC3; HC2LC3) VH: QVQLVQSGAEVKKPGASVKVSCKASGYTFTNYWMHWVRQAPGQGLEWMGVIDPSDSYTTYAQKFQGRVTMTVDTSTSTVYMELSSLRSEDTAVYYCARGNYGVDYAMDYWGQGTLVTVSS VL: DIQMTQSPSSLSASVGDRVTITCRASENIYGALNWYQQKPGKAPKLLIYGATNLADGVPSRFSGSGSGRQYSLTISSLQPEDFATYYCQNVLITPYTFGGGTKLEIKR | ~3 fold | ~3 fold | no binding (tested: 10 ug/ml) | no binding (tested: 10 ug/ml) | no binding (tested: 10 ug/ml) | no binding (tested: 10 ug/ml) | no binding (tested: 10 ug/ml) | no binding (tested: 10 ug/ml) | no binding (tested: 10 ug/ml) | no binding (tested: 10 ug/ml)
mouse anti-human CCL20 monoclonal antibody 36F7C10 (antibody, V domains shown, Mouse hybridoma antibody; also called MouseMAb; parental mouse clone 36F7C10) VH: QVQLQQPGAELVKPGASVKMSCKASGYTFTNYWMHWVKQRPGQGLEWIGVIDPSDSYTTYNQKFKGKATLTVDTSSSTAYMQLSSLTSEDSAVYYCTRGNYGVDYAMDYWGQGTSVTVSS VL: DIQMTQSPASLSASVGETVTITCGASENIYGALNWYQRKQGKSPQLLIYGATNLADGMSSRFSGSGSGRQYSLKISSLHPDDVATYYCQNVLITPYTFGGGTKLEIK | – | – | no binding (tested: 10 ug/ml) | no binding (tested: 10 ug/ml) | no binding (tested: 10 ug/ml) | no binding (tested: 10 ug/ml) | no binding (tested: 10 ug/ml) | no binding (tested: 10 ug/ml) | no binding (tested: 10 ug/ml) | no binding (tested: 10 ug/ml)
chimeric 36F7C10 antibody (36F7C10-hFc) (antibody, V domains shown, also called chimeric 36F710; Chimeric MAb) VH: QVQLQQPGAELVKPGASVKMSCKASGYTFTNYWMHWVKQRPGQGLEWIGVIDPSDSYTTYNQKFKGKATLTVDTSSSTAYMQLSSLTSEDSAVYYCTRGNYGVDYAMDYWGQGTSVTVSS VL: DIQMTQSPASLSASVGETVTITCGASENIYGALNWYQRKQGKSPQLLIYGATNLADGMSSRFSGSGSGRQYSLKISSLHPDDVATYYCQNVLITPYTFGGGTKLEIK | ~3 fold | ~3 fold | no binding (tested: 10 ug/ml) | no binding (tested: 10 ug/ml) | no binding (tested: 10 ug/ml) | no binding (tested: 10 ug/ml) | no binding (tested: 10 ug/ml) | no binding (tested: 10 ug/ml) | no binding (tested: 10 ug/ml) | no binding (tested: 10 ug/ml)
